In paper PMC9599533:
Where “and” joins values, the source holds several entries; their conditions need not be identical. Equal values may be shown once.

Tests used:
[1] = molecular target: Mpa_(C-EXT) (mycobacterial proteasome ATPase Mpa with a GGGGS linker inserted between Thr601 and Glu (M. tuberculosis) (UniProt P9WQN5)); assay: cryo-EM structure
[2] = molecular target: M. tuberculosis open gate 20S core particle (20SOG CP) (M. tuberculosis) (UniProt P9WHU1); assay: cryo-EM structure

## Mpa_(C-EXT) (mycobacterial proteasome ATPase Mpa with a GGGGS linker inserted between Thr601 and Glu (from UniProt P9WQN5 1-609) (enzyme)
[1]
  stoichiometry N: 6
[2]
  percent of 20SOG CPs complexed: 50% and 40%
